The source of these data is the Human Domainome abundance scans (Beltran et al. 2025).

B1: Double-stranded RNA-specific adenosine deaminase, residues 296 to 358; numbered along this chain, P55265 (parent)
chain: MAEIKEKICDYLFNVSDSSALNLAKNIGLTKARDINAVLIDMERQGDVYRQGTTPPIWHLTDK

± gives the uncertainty stated by the source.

The variants in this data set derive from B1. The experiment in a line: abundance fitness (aPCA) (normalised: wild type 0, dead -1); higher = more abundant; growth selection in yeast, the domain comes from the species named. Conditions: Homo sapiens.
Consider MAEIKEKICDYLFNVSDSSALNLAKNIGLCKARDINAVLIDMERQGDVYRQGTTPPIWHLTDK [T30C], for which the abundance fitness was -0.002 ± 0.065.

Take MAEIKEKICDYLFNVSDSSALNLAKNIGLSKARDINAVLIDMERQGDVYRQGTTPPIWHLTDK [T30S]: the abundance fitness was found to be 0.107 ± 0.045.

On to MAEIKEKICDYLFNVSDSSALNLAKNIGLGKARDINAVLIDMERQGDVYRQGTTPPIWHLTDK [T30G], for which the abundance fitness is -0.054 ± 0.055.

With MAEIKEKICDYLFNVSDSSALNLAKNIGLAKARDINAVLIDMERQGDVYRQGTTPPIWHLTDK [T30A], the abundance fitness was found to be 0.128 ± 0.038.

With MAEIKEKICDYLFNVSDSSALNLAKNIGLEKARDINAVLIDMERQGDVYRQGTTPPIWHLTDK [T30E], the abundance fitness came to 0.361 ± 0.051.

Consider MAEIKEKICDYLFNVSDSSALNLAKNIGLRKARDINAVLIDMERQGDVYRQGTTPPIWHLTDK [T30R], for which the abundance fitness is -0.352 ± 0.047.

With MAEIKEKICDYLFNVSDSSALNLAKNIGLHKARDINAVLIDMERQGDVYRQGTTPPIWHLTDK [T30H], the abundance fitness was -0.252 ± 0.095.

As to MAEIKEKICDYLFNVSDSSALNLAKNISLTKARDINAVLIDMERQGDVYRQGTTPPIWHLTDK [G28S], the abundance fitness is -0.474 ± 0.055.

In the case of MAEIKEKICDYLFNVSDSSALNLAKNIQLTKARDINAVLIDMERQGDVYRQGTTPPIWHLTDK [G28Q], the abundance fitness was -0.606 ± 0.14.

As to MAEIKEKICDYLFNVSDSSALNLAKNIWLTKARDINAVLIDMERQGDVYRQGTTPPIWHLTDK [G28W], the abundance fitness was -0.886 ± 0.11.

In the case of MAEIKEKICDYLFNVSDSSALNLAKNINLTKARDINAVLIDMERQGDVYRQGTTPPIWHLTDK [G28N], the abundance fitness is -0.43 ± 0.11.

MAEIKEKICDYLFNVSDSSALNLAKNIILTKARDINAVLIDMERQGDVYRQGTTPPIWHLTDK [G28I]: the abundance fitness was -1.01 ± 0.15.

Turning to MAEIKEKICDYLFNVSDSSALNLAKNIKLTKARDINAVLIDMERQGDVYRQGTTPPIWHLTDK [G28K], the abundance fitness is -0.229 ± 0.081.

Consider MAEIKEKICDYLFNVSDSSALNLAKNIVLTKARDINAVLIDMERQGDVYRQGTTPPIWHLTDK [G28V], for which the abundance fitness was -0.713 ± 0.069.

Consider MAEIKEKICDYLFNVSDSSALNLAKNILLTKARDINAVLIDMERQGDVYRQGTTPPIWHLTDK [G28L], for which the abundance fitness is -0.97 ± 0.093.

MAEIKEKICDYLFNVSDSSALNLAKNIPLTKARDINAVLIDMERQGDVYRQGTTPPIWHLTDK [G28P]: the abundance fitness was -0.234 ± 0.078.

Consider MAEIKEKICDYLFNVSDSSALNLAKNIDLTKARDINAVLIDMERQGDVYRQGTTPPIWHLTDK [G28D], for which the abundance fitness is -0.186 ± 0.058.

Turning to MAEIKEKICDYLFNVSDSSALNLAKNIYLTKARDINAVLIDMERQGDVYRQGTTPPIWHLTDK [G28Y], the abundance fitness is -0.982 ± 0.13.

As for MAEIKEKICDYLFNVSDSSALNLAKNIFLTKARDINAVLIDMERQGDVYRQGTTPPIWHLTDK [G28F], the abundance fitness is -0.796 ± 0.16.

Regarding MAEIKEKICDYLFNVSDSSALNLAKNIHLTKARDINAVLIDMERQGDVYRQGTTPPIWHLTDK [G28H], the abundance fitness is -0.508 ± 0.097.

Turning to MAEIKEKICDYLFNVSDSSALNLAKNIELTKARDINAVLIDMERQGDVYRQGTTPPIWHLTDK [G28E], the abundance fitness was -0.15 ± 0.065.

As for MAEIKEKICDYLFNVSDSSALNLAKNIRLTKARDINAVLIDMERQGDVYRQGTTPPIWHLTDK [G28R], the abundance fitness is -0.802 ± 0.072.

In the case of MAEIKEKICDYLFNVSDSSALNLAKNIMLTKARDINAVLIDMERQGDVYRQGTTPPIWHLTDK [G28M], the abundance fitness is -0.805 ± 0.11.

As for MAEIKEKICDYLFNVSDSSALNLAKNITLTKARDINAVLIDMERQGDVYRQGTTPPIWHLTDK [G28T], the abundance fitness is -0.655 ± 0.076.

As for MAEIKEKICDYLFNVSDSSALNLAKNIALTKARDINAVLIDMERQGDVYRQGTTPPIWHLTDK [G28A], the abundance fitness is -0.453 ± 0.056.

On to MAEIKEKICDYLFNVSDSSALNLAKNIGLTVARDINAVLIDMERQGDVYRQGTTPPIWHLTDK [K31V], for which the abundance fitness was -0.67 ± 0.066.

With MAEIKEKICDYLFNVSDSSALNLAKNIGLTRARDINAVLIDMERQGDVYRQGTTPPIWHLTDK [K31R], the abundance fitness was -0.006 ± 0.036.

Turning to MAEIKEKICDYLFNVSDSSALNLAKNIGLTYARDINAVLIDMERQGDVYRQGTTPPIWHLTDK [K31Y], the abundance fitness is 0.173 ± 0.11.

Turning to MAEIKEKICDYLFNVSDSSALNLAKNIGLTHARDINAVLIDMERQGDVYRQGTTPPIWHLTDK [K31H], the abundance fitness was found to be 0.367 ± 0.063.

With MAEIKEKICDYLFNVSDSSALNLAKNIGLTPARDINAVLIDMERQGDVYRQGTTPPIWHLTDK [K31P], the abundance fitness is 0.041 ± 0.057.

Regarding MAEIKEKICDYLFNVSDSSALNLAKNIGLTFARDINAVLIDMERQGDVYRQGTTPPIWHLTDK [K31F], the abundance fitness is -0.695 ± 0.13.

For MAEIKEKICDYLFNVSDSSALNLAKNIGLTCARDINAVLIDMERQGDVYRQGTTPPIWHLTDK [K31C], the abundance fitness came out at 0.237 ± 0.079.

Consider MAEIKEKICDYLFNVSDSSALNLAKNIGLTSARDINAVLIDMERQGDVYRQGTTPPIWHLTDK [K31S], for which the abundance fitness was 0.285 ± 0.042.

For the variant MAEIKEKICDYLFNVSDSSALNLAKNIGLTWARDINAVLIDMERQGDVYRQGTTPPIWHLTDK [K31W], the abundance fitness is -0.635 ± 0.078.

As for MAEIKEKICDYLFNVSDSSALNLAKNIGLTGARDINAVLIDMERQGDVYRQGTTPPIWHLTDK [K31G], the abundance fitness was -0.049 ± 0.044.

Regarding MAEIKEKICDYLFNVSDSSALNLAKNIGLTTARDINAVLIDMERQGDVYRQGTTPPIWHLTDK [K31T], the abundance fitness is 0.066 ± 0.055.

Consider MAEIKEKICDYLFNVSDSSALNLAKNIGLTNARDINAVLIDMERQGDVYRQGTTPPIWHLTDK [K31N], for which the abundance fitness was determined as 0.144 ± 0.092.

MAEIKEKICDYLFNVSDSSALNLAKNIGLTQARDINAVLIDMERQGDVYRQGTTPPIWHLTDK [K31Q]: the abundance fitness stood at 0.097 ± 0.066.

With MAEIKEKICDYLFNVSDSSALNLAKNIGLTDARDINAVLIDMERQGDVYRQGTTPPIWHLTDK [K31D], the abundance fitness amounted to 0.36 ± 0.1.

Take MAEIKEKICDYLFNVSDSSALNLAKNIGLTEARDINAVLIDMERQGDVYRQGTTPPIWHLTDK [K31E]: the abundance fitness is 0.251 ± 0.083.

MAEIKEKICDYLFNVSDSSALNLAKNIGLTLARDINAVLIDMERQGDVYRQGTTPPIWHLTDK [K31L]: the abundance fitness was -0.53 ± 0.07.

As to MAEIKEKICDYLFNVSDSSALNLAKNIGLTIARDINAVLIDMERQGDVYRQGTTPPIWHLTDK [K31I], the abundance fitness was -1.14 ± 0.37.

As to MAEIKEKICDYLFNVSDSSALNLAKNIGLTAARDINAVLIDMERQGDVYRQGTTPPIWHLTDK [K31A], the abundance fitness was -0.098 ± 0.045.
